Assay results published in a protein production outcome set (Wang et al. 2014).

Assay: label from the status in PepcDB records
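Further: failed if final PepcDB status was selected cloned or expressed and not failed if soluble or beyond.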

Sequence | protein production
MELSSSESLGFSKILKERVKVKPMNKYAILAVLLWSTVASAFKLTLSRLDTISMLFYSSLTSTVIFLLANLKDIKTFSIKANLNSVFFGFINPFLYYLVLFSAYSILPAQEAQALNYTWPIILVIFSSAFLGQRLSERDFLGVIIGFLGALVVGTRGNLSSLHFANPMGDLLALCSAIIWAIYWILNLRDPRKAEVKMMWNFIFGFLYISILGVIEGIKFDPYGVLGAIYVGTFEMGLTFLLWLKALESEEAGKVASLIYLTPVLSLLFISIVVGEKILGSTIVGLALILLGIALSRR | failed
MELTALDKLEIMELAARFEMSLDKEDVENYLATFASDGALQGFWGIAKGKEELRQGFYAMLDTFARGKRHCSSNAIIQGNYDEATMESYLTVVNREDLNRAGSAFVKDQVRKINGKWYLILRQIEVDPSLPLLQQSQQAGANA | not failed
MELTQTHLLPVPLQTAWDALNDPAVLQRCIPGCESVTAATEHAYDIAMTAAVGPVKARFKGRMELADIVPPRSYTLHFDGQGGAAGFGKGTAQVQLAPEGPTVTRLSYTAHAQVGGKLAQIGSRLIDGAARKLADEFFQRFASEFGPAGGTGPLDAAPADQAIPDLASGELAAHGAPRTPLISPAVQPRNPWPWIIVALVAIVAAYLFLHHGA | failed
MEMINVFVYGTLRRGGGNHQLIAEYVQSVHEATVKGMLFHLPYGYPAMVDGRGTVRGEILELSNPETALTILDELEGYHGPGQSNEYERITVTAVTADGNKYICYTYVYPEEQREWLEQNAQPIFGGDWMAFLHSKDEVMYFAYGSCMSERDFRRTVPHFEVMGRAVLDDYRLAFTRYSSGRQGGVADIVPSPGDRVEGVLYKISSRYVKDLDWREGVPAGVYRREYIDVQHNGQLVSALTYVVVEKQLDEIAPSESYASIILDEGTSLLSPQYIEQVRRHIETLQKKGR | failed
MEMKKMKKMDKMELLKQIMAVDFTIIDLSLYLNTHPMDKEAIAKHNAFVAQSHMLKGQYQKYYGMLTATNSCSPYPWQWIKEPWPWEYDANFRL | failed
MEMYFKRMKDEWTGLVEQADPPIRAKAAEIAVAHAHYLSIEFYRIVRIDPHAEEFLSNEQVERQLKSAMERWIINVLSAQVDDVERLIQIQHTVAEVHARIGIPVEIVEMGFRVLKKILYPVIFSSDYSAAEKLQVYHFSINSIDIAMEVMTRAFTFSDSSASKELEHHHHHH | not failed
MENDSSIQWEHSHDFGLDNKLHENKVKTVFWLTTVIMVLEIGAGTWSGSMALLADGWHMGTHSAAFLIAIFAYSYAKKHANNKDFSFGTGKVNSLGGFASAIALAIVALMMIVESVQRLLEPQSIHFNEAIVVAIIGLVVNVASVFILHDDHHHHGEHHHDHDHNMKAAYFHVLADTLTSLLAIVALLIGKYVGLIWMDPLMGIVGAIVILRWSYGLIKDSSNVLLDKSVKKSTLEQISKALSKKNTVINDIHVWTIATAHQAAILKVTSAQPLNSDEYEGILREILPQLSHISIEIRHDYSL | failed
MENIEYVFEDVVRIYDTDAQGIAHYAAYYRFFTNTIEKFIKEKVGIPYPIVNENLWFVIAESHAIYHRPVKLGDKLTVLLNPKILSNKTIKFEFKVLKDGELTTEGYVIQIAINPKIWKSTEMPKEIMDKLSIK | not failed
MENKPDYFHHIEHRKFQSSSKITLWLSLVITMIFTVVEFVGGIVSNSLALLSDSFHMLSDVLALGLSMVAIYFSSKPPTKNYTYGFLRLEIIVAFLNGLALIVISLGIMYEGIMRIIHPRPVESGIMILIAFIGLIANIVLTIILMISLKKENNINIQSALWHFIGDLLNSLGIIVAFVLIHFTGWNIVDPIISILISLIILRGGYKIIKNASKVLMERVPDRYDTDEIMGAMKDVEGVIDIHEFHLWSVTTNQSSLSAHVVLSDDYIKSPYATINKVSDLLKTQYGLEHVTLQIENINLNHLDEEYFKQLQE | failed
MENLALTTLLLPFIGALVVSFSPQRRAAEWGVLFAALTTLCMLSLISAFYQADKVAVTLTLVNVGDVALFGLVIDRVSTLILFVVVFLGLLVTIYSTGYLTDKNREHPHNGTNRYYAFLLVFIGAMAGLVLSSTLLGQLLFFEITGGCSWALISYYQSDKAQRSALKALLITHIGSLGLYLAAATLFLQTGTFALSAMSELHGDARYLVYGGILFAAWGKSAQLPMQAWLPDAMEAPTPISAYLHAASMVKVGVYIFARAIIDGGNIPHVIGGVGMVMALVTILYGFLMYLPQQDMKRLLAWSTITQLGWMFFGLSLSIFGSRLALEGSIAYIVNHAFAKSLFFLVAGALSYSCGTRLLPRLRGVLHTLPLPGVGFCVAALAITGVPPFNGFFSKFPLFAAGFALSVEYWILLPAMILLMIESVASFAWFIRWFGRVVPGKPSEAVADAAPLPGSMRLVLIVLIVMSLISSVIAATWLQ | failed
MENLKNVAPIEDFNWDAYENGEAVTSASHEDLEKAYDGTLNKVNDREVVDGTVIAMNKREVVVNIGYKSDGIIPLNEFRYNPDLKVGDTVEVYIENQEDKKGQLVLSHRKARATRSWDRVNAALENEEIIKGFIKCRTKGGMIVDVFGIEAFLPGSQIDVKPIRDYDVFVGKTMEFKVVKINQEFKNVVVSHKALIEAELEQQKKEIIGKLEKGQVLEGTVKNITSYGVFIDLGGVDGLIHITDLSWGRVSDPKEVVELDQKLNVVILDFDDEKKRIALGLKQLTPHPWDALDTDLKVGDKVKGKVVVMADYGAFIEIATGVEGLIHVSEMSWSQHLRSAQDFMKVGDEVEAVVLTLDREERKMSLGIKQLKQDPWETIEEKYPVGSKHTAKVRNFTNFGVFVEIEEGVDGLIHISDLSWTKKVKHPSEFTQIGADIEVQVLEIDKENRRLSLGHKQLEENPWDVFETVFTVGSVHEGTIIEMLDKGAVVALPYGVEGFATPKHLVKEDGSQAQLDEKLEFKVIEFNKDAKRIILSHSRIFEDVAKAEERAEKKAASGAKKSSNNKREDAPMIQNQAASTTLGDIDALAALKEQLEGKKLEHHHHHH | not failed
MENMIVIMAGGRSSRMGAEKPILKVNGKPMILRVYEESTKVGETLVAISKNTPKTRELCIKEGIPLIETPGEGYVEDVRYLLKELGSFVSVSADLPFVKACDIAEVKKAFDGKTSLTGVLPLSKVPTDLRPVVYKGYVIVGLNGVGFEGEKFYELSNPLLALNVNTPEELKLANRIAKLIGLEHHHHHH | failed
MENQKMQEPLVYRRILLTVDEDDNTSSERAFRYATTLAHDYDVPLGICSVLESEDINIFDSLTPSKIQAKRKHVEDVVAEYVQLAEQRGVNQVEPLVYEGGDVDDVILEQVIPEFKPDLLVTGADTEFPHSKIAGAIGPRLARKAPISVIVVR | not failed
MENRAHALAAGLFILLLGVATVMAVKWFSRDSVSYNHYFLVSAGGAVSGLNPEASVRYRGVNVGKVEEIYFDRENIRNIIVRIAVNHNVVLPGDIYAQLASQGITGLTYIELNDDVADAETKPLQNEARIPLRSSLIKTLSDSLEEILKNSNMAIRQISNLLNEQNQTHISSILSHLEQAVQHYDTLTGQLQKGLQTLPQLSSELTSTFKQTRQVMENTSQVLQKLNQQQGLVDNLTQGSLEMTRTLTSLNETGVAITQSAHKLDQLLNLLEDHPQSLVFGKPPALPGPGEPGFSPPQPGK | failed
MENSDETKMSEEILALVDEFQQAWPLEGFGGALEMKGRRLDLQGIRVLKKGPQDGVARSSCYGDCRSEDDEATEWITFQVKRVKKPKGDHKKTPGKKVETGQIENGHRYQANLEITGPKVASPGPQGKKRDYQRLGWPSPDECLKLRWVELTAIVSTWLAVSSKNIDITEHIDFATPIQQPAMEPLCNGNLPTSMHTLDHLHGVSNRASLHYTGESQLTEVLQNLGKDQYPQQSLEQIGTRIAKVLEKSQTSWVLSSMAALYWRVKGQGKKAIDCLRQALHYAPHQMKDVPLISLANILHNAKLWNDAVIVATMAVEIAPHFAVNHFTLGNVYVAMEEFEKALVWYESTLKLQPEFVPAKNRIQTIQCHLMLKKGRRSP | failed
MENSLRSTLLDIVKGCIATVALFIAYLELPVIGMLAGVVVPLPALLYDLKRGKWSGLAIVLASALIFMLIAGPAGALLYVLQAGIFSLALPRFLTMGGGPARALASAVAVTVAVITAAAVGYGVTRGVTVEGQVAESLQSSITQAIQLYEKSGVSGADLDELREGMEQAAKSLAQLYPSLFVVGIAMAGGLNLLLLQRFGRRLGLAVPGGSFGKYRNPDHLVWLPICAGFALLAGHDAVTTIALNVLVLTGFLYFIQGMAIIIHLFDRYAAPAFLRYLLYFLLFVQAYLVVAVALFGLLDLWGNFRRPRIPTNL | failed
